The record followed here is US20250092124A1 (YUNNAN BAIYAO GROUP, published 2025).

For assay [1], the target named is T1, GDF15-HIS (ACROBiosystems, CAT #: GD5-H5149) (human, UniProt Q99988 197-308).
T1 sequence (looked up): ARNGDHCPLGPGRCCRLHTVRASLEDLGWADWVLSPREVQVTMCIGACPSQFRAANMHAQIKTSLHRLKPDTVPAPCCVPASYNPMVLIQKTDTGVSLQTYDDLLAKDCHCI
As to the kind of experiment: cell-based or functional assay.

Assay [2] concerns the target T1, GDF15-HIS (ACROBiosystems, CAT #: …). Kind of assay: ELISA, GDF15-HIS coated. As for the experimental part: The experiment was performed as detailed in Example 2, except that the coating protein was GDF15-HIS (ACROBiosystems, CAT #: GD5-H5149), and the antibodies to be tested (the humanized antibodies), negative control antibody (hIgG1), positive control antibodies Ponsegromab (Pfizer; Drug Bank: D11909) and AV380-hlgG1 (the heavy chain and light chain constant regions of AV380-mIgG1 were replaced with the constant regions of human IgG, i.e., SEQ ID NO. 5 and SEQ ID NO. 6) were added to each well of the coated plate.

The target of assay [3] is T2, GDF1 (R&D, 6937-GD-010) (UniProt P27539 254-372).
T2 sequence (looked up): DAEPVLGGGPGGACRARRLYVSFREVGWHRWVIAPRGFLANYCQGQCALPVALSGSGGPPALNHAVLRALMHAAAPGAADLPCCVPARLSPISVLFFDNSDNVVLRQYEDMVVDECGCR
As to the kind of experiment: ELISA, GDF1 coated at 1 µg/ml, HRP-anti-human IgG. As for the experimental part:
(§1) GDF15 (ACROBiosystems, GDS-HS149), GDF1 (R&D, 6937-GD-010), and GDF3 (R&D, 5754-G3-010) proteins were dissolved in PBS at a concentration of 1 μg/ml and were used to coat ELISA 96-well plate. On the next day, the 96-well plate was blocked with 2% BSA in PBS for 1 hour. After removing the blocking solution, GDF15 antibody 53E5 (hz), control antibody Ponsegromab and irrelevant hIgG1 were added at 4 μg/ml. After incubation at room temperature for 1 hour, the plate was washed, and then HRP-anti-human IgG was added. After incubation at room temperature for 1 hour, the HRP enzyme activity signal (OD450) was detected. The OD450 value is the relative signal of the antibody binding amount.
In general terms: In an ELISA, binding on a coated surface is turned into a signal by an enzyme label.

The target of assay [4] is T3, GDF3 (R&D, 5754-G3-010) (UniProt Q9NR23 251-364).
T3 sequence (looked up): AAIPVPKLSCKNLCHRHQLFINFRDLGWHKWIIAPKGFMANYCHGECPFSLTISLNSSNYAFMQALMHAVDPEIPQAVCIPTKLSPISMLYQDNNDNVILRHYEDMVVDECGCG
Kind of assay: ELISA, GDF3 coated at 1 µg/ml, HRP-anti-human IgG. As for the experimental part:
as §1

Assay [5] has as its target T1, GDF15-HIS (ACROBiosystems, CAT #: …). Kind of assay: BLI (ForteBio Octet), antibody immobilised, GDF15 200-6.25 nM. Background: In BLI a coated tip is dipped into the sample, and binding shifts an interference pattern.
For assay [6] the target is unchanged. As to the kind of experiment: ELISA in stability test, antibody after 40 °C for 1 week; coated antigen not named. As for the experimental part: (§2) An appropriate amount of each antibody was taken and adjusted to 10 mg/mL, and was placed at 40° C. for 1 and 2 weeks. Protein aggregation was detected using SEC-HPLC, and protein binding activity change was detected by ELISA.

For assay [7] the target is unchanged. Kind of assay: ELISA in stability test, antibody after pH 3.6 for 2-4 h; coated antigen not named. The method, then: An appropriate amount of each antibody was taken and adjusted to 5 mg/mL in storage buffer adjusted to pH 3.6 using an ultrafiltration tube. The antibodies were placed at room temperature for 2-4 hours, then protein aggregation was detected using SEC-HPLC, and protein binding activity change was detected by ELISA.

The target is the same in assay [8]. Kind of assay: ELISA in stability test, antibody after 40 °C for 2 weeks; coated antigen not named. As for the experimental part: as §2
Assay [9] shares this target. As to the kind of experiment: ELISA in stability test, antibody after 5 freeze-thaw cycles; coated antigen not named. The method, then: An appropriate amount of each antibody was taken and adjusted to 10 mg/mL, followed by freezing at −80° C. for 10 min, and placing in an ice-water mixture to slowly thaw. The above procedure was repeated 5 times. Protein aggregation was detected using SEC-HPLC, and protein binding activity change was detected by ELISA.

Assay [10] has the same target. As to the kind of experiment: ELISA on human GDF15, antibody after 2 weeks at 37 °C in PBS; PBS, 37 C for 2 weeks (not plasma). As for the experimental part: […] of the antibodies to be tested (final concentration 1 mg/ml) were added to 200 μl of plasma and PBS, respectively, tightly sealed and placed at 37° C. for 2 weeks. The change of protein binding activity was detected by ELISA.

For assay [11] the target is unchanged. Kind of assay: ELISA in stability test, antibody before treatment; coated antigen not named; before treatment (unstressed antibody, 10 mg/mL).

B1: 53E5(hz) (antibody, human IgG1, kappa, V domains shown)
VH: QVQLQESGPGLVKPSETLSLTCTFSGFSLSTSGMGVGWIRQPPGKGLEWLAHILWDDVKRYNPALKSRLTISKDSSKSQISLKLSSVTAADTAVYYCVQMAWDWFAYWGQGTTVTVSS
VL: DIQMTQSPSSLSASVGDRVTITCKASQNVDTNVAWYQQKPGQSPKALIYSASYRSSGVPSRFSGSGSGTDFTLTISSLQPEDFATYYCQQYHSYPTFGQGTRLEIKR
notes: also called S3E5 (hz); humanized antibody 53E5
Consider B1, for which, in assay [1], the “Bottom (luciferase activity fold, fitted curve), HEK293 SRE-LUC2-cRET-GFRAL reporter cells” value is 1.1. In assay [1], the “IC50, luciferase in HEK293 SRE-LUC2-cRET-GFRAL reporter cells stimulated with GDF15-His 5 ng/ml” value amounted to 0.0225 µg/mL. For the same molecule, the EC50 in assay [2] is 0.0833 µg/mL; in assay [6], 0.0641 µg/mL; in assay [7], 0.0699 µg/mL; in assay [8], 0.0573 µg/mL; in assay [9] it was 0.0648 µg/mL; in [10] it was 0.127 µg/mL. The molecule further registered an EC50 in assay [11] of 0.0588 µg/mL. This molecule also displayed an OD450.Max in assay [2] of 1.05 OD450. The binding result in [3] and in assay [4] was “no binding (tested: 4 µg/ml)” each time. The same molecule had a Kd in assay [5] of 0.293 nM. Besides, in assay [5], the koff was found to be 0.000271 s⁻¹. Also, the kon in [5] was 923000 M⁻¹ s⁻¹.

What is called EC50 is the concentration needed to bring the measured effect to its halfway point. Usually Kd stands for a measure of binding affinity in units of concentration. A low value points to tighter binding. For orientation: koff means a measure of how fast the partners let go of each other. A higher koff goes with fast dissociation. As usually defined, the kon is the second-order rate constant of association. A lower kon goes with slow association.
